In assay [1] the target is T1, human IL-6 receptor (hIL-6R) (human, UniProt P08887 20-357, limits assumed).
T1 sequence: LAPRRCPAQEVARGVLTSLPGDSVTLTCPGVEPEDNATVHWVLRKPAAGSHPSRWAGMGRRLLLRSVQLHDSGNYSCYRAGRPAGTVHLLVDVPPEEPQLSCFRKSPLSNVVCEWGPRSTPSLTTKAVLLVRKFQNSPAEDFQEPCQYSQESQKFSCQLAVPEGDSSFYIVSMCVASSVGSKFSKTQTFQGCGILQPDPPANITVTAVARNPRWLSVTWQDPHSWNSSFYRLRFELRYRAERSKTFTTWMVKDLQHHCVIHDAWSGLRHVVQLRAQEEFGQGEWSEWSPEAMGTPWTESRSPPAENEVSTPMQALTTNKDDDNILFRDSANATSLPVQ
Kind of assay: SPR (Biacore T200), antibody captured on ProA/G on CM4 chip, hIL-6R as analyte, single cycle kinetics, 25 C, in the presence of 100 µM MTA; 100 µM MTA in the antigen buffer. The protocol: (§1) The effects of MTA and adenosine on the antigen-antibody reaction between the antibodies purified and produced in Example (4-5) and the target antigens were evaluated using Biacore T200 (GE Healthcare). 20 mM ACES, 150 mM NaCl, 0.05% (w/v) Tween20, pH 7.4 was used as the running buffer, and the measurement was performed at 25° C. Changes in the amount of binding between antigens and antibodies were observed by immobilizing ProA/G on the sensor chip CM4 by amine coupling, immobilizing the antibody on it, and then interacting with various antigens as analytes. The running buffer and a buffer prepared by adding either MTA or adenosine to the running buffer at a final concentration of 100 μM were used to dilute the antigens. In addition, the antigens were prepared in concentration series of several steps, and the dissociation constant KD of each clone was calculated by single cycle kinetics analysis from the sensorgram for each antigen concentration. Biacore T200 Evaluation Software (GE Healthcare) was used to calculate the parameters.

In assay [2] the target is human IL-6 (hIL-6) (human). Kind of assay: SPR (Biacore T200), antibody captured on ProA/G on CM4 chip, hIL-6 as analyte, single cycle kinetics, 25 C, in the presence of 100 µM MTA; 100 µM MTA in the antigen buffer. The protocol:
as §1
(In SPR one partner is held on a chip, and binding of the other changes the refractive index at the surface.)

The target of assay [3] is T2, human IgA (hIgA) (human).
T2 chain: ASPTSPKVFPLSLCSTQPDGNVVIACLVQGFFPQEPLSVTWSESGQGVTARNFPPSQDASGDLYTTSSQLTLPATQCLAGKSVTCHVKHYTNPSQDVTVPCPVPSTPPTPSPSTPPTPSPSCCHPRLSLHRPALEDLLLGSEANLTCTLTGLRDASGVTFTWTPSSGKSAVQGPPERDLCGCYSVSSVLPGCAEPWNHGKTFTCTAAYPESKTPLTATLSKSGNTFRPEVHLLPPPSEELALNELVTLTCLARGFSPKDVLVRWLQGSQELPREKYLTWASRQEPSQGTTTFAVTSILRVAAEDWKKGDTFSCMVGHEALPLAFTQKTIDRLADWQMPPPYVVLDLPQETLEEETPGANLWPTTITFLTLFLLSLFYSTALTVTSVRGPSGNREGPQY
Kind of assay: SPR (Biacore T200), antibody captured on ProA/G on CM4 chip, hIgA as analyte, single cycle kinetics, 25 C, in the presence of 100 µM MTA; 100 µM MTA in the antigen buffer.

For orientation: Kd means the free concentration of one partner at which half of the binding sites on the other are occupied at equilibrium, for simple one-to-one binding.

human IL-6 (hIL-6) (human), sequence (P05231 30-212): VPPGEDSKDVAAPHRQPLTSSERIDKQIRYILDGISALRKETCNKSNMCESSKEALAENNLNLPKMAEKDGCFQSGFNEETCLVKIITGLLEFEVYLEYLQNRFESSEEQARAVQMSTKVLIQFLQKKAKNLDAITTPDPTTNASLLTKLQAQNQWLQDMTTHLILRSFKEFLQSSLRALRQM

B1: 6RS2T007H-F760mnN17/6RS2T007L-KT0 (antibody, human IgG1, kappa, N297A, V domains shown)
VH: QVQLVQSGAEVKKPGASVKVSCKVSNIVLMQHTYGWVRQPPGKGLEWIGIIGGDGHAWYPRWVKGRFTISKDNSKNQVVLTMTNMDPVDTATYYCARGGKDGFTNAWDPWGQGTLVTVSS
VL: DIQLTQSPSSLSASVGDRVTITCQSSQSVFNNNGLSWYQQKPGQPPKLLIYDASTLASGVPSRFSGSGSGTDFTLTINSLEAEDAATYYCHGSQATQIWWDNAFGGGTEVVVKR
notes: From the MTA-concentrated S02 library (humanized SMB0002 template); also called MTA-dependent anti-hIL-6R antibody
For the molecule B1, the Kd in assay [1] is 1010 nM.

B2: 6LS2T001H-F760mnN17/6LS2T001L-KT0 (antibody, human IgG1, kappa, N297A, V domains shown)
VH: QVQLVQSGAEVKKPGASVKVSCKVSDIDAMQYTYGWVRQPPGKGLEWIGIIGEGGEVWYPYWVKGRFTISKDNSKNQVVLTMTNMDPVDTATYYCARGYHEGFVNAWDPWGQGTLVTVSS
VL: DIKLTQSPSSLSASVGDRVTITCQSSQSVLWNNYLSWYQQKPGQPPKLLIYDASTLASGVPSRFSGSGSGTDFTLTINSLEAEDAATYYCHGSQFEQWVFDNAFGGGTEVVVKR
notes: From the MTA-concentrated S02 library; Target antigen is hIL-6
Take B2: in assay [2], the Kd turned out to be 126 nM.

B3: IAS2T001H-F760mnN17/IAS2T001L-KT0 (antibody, human IgG1, kappa, N297A, V domains shown)
VH: QVQLVQSGAEVKKPGASVKVSCKVSDIQDEQYAFGWVRQPPGKGLEWIGIIGATGHVWYPQWVKGRFTISKDNSKNQVVLTMTNMDPVDTATYYCARGHKQHFTNAFDPWGQGTLVTVSS
VL: DIQLTQSPSSLSASVGDRVTITCQSSQSVYKNNYLSWYQQKPGQPPKLLIYDASTLASGVPSRFSGSGSGTDFTLTINSLEAEDAATYYCHGAYLYLGVDNAFGGGTEVVVKR
notes: From the MTA-concentrated S02 library; Target antigen is hIgA
With B3, the Kd in assay [3] came out at 689 nM.

The record behind these values is patent US20220153875A1 (Chugai, published 2022).
